Data published in the nanobody polyreactivity screen of Harvey et al. (2022).

Test: yeast display, Sf9 membrane polyspecificity reagent, FACS + sequencing; frameworks hold sequencing errors
In short: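 Using colony PCR, genes from sorted yeast display clones were amplified, then sequenced on MiSeq at 2 × 250 and filtered by CDR length. The clones had been stained with 10% biotinylated, detergent-solubilized Sf9 membrane reagent for 1 hour at 4 °C and sorted by FACS into low and high (top ~1%) gates on anti-HA and streptavidin fluorescence. Polyreactivity labels come from the gate of origin.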

| Sequence | polyreactivity (PSR sort gate) |
| --- | --- |
| QVQLVESGGGLVQAGGSLRLSCAASTYLRLLMLWDGIDLRLGKKGSWLTLLTLVVNSTYYADSVKGRFTISRDNAKNTVFLQMNSLKPEDTAVYYCNVDPYGTYARTHLEYWGQGTQVTVSS | low polyreactivity |
| QVQLVESGGGLVQAGGSLRLSCAASVFIFPHYTMGWYRQAPGKERELVAAISSSGGSTYYADSVKGRFTISRYNAKNTVYLQMNSLKPEDSADYYCPGPLPYYGQYDYWGQGTQVTVSS | low polyreactivity |
| QVQLVESGGGLVQAGGSLRLSCAASVFTFAPNAMGWYRQAPGKERELVAVIDSGGSTNYADSVKGRFTISRDNAKNTVYLQMNSLKPEDTAVYYCATDVPLDYYWLWDDYWGQGTQVTVSS | low polyreactivity |
| QVQLVESGGGLVQAGGSLRLSCAASVFTFNDYAMGWYRQAPGKERELVAAIDWSGGRTYYADSVKGRFTISRDNAKNTVYLQMNSLKPEDTAVYYCAAVLYSRLYWYRLDYWGQGTQVTVSS | low polyreactivity |
| QVQLVESGGGLVQAGGSLRLSCAASVFTFTKYAMGWYRQAPGKERELVAAITRRGGRTYYADSVKGRFTISRDNAKNTVYLQMNSLKPEDTAVYYFNADIIWGSVSNGSEYDYWGQGTQVTVSS | high polyreactivity |
| QVQLVESGGGLVQAGGSLRLSCAASVFTSLIYAMGWYRPAPGKERELVATLTWGGGSTYADSVKGRLTISRDNAQNTVYLQMNSLKPVDTAVYDCKADIYDSWVYATVYSDRYDYWGQGTQVTVSS | low polyreactivity |
| QVQLVESGGGLVQAGGSLRLSCAASVFYPYAMGWYRQAPGKERELVAAISWSGGRTYYADSVKGRFTISRDNAKNTVYLQMNSLKPEDTAVYYCNKVYSSYRVYDFNYWGQGTQVTVSS | high polyreactivity |
| QVQLVESGGGLVQAGGSLRLSCAASVIICPDNAMGWDRPAPGKERELVAAITQSRGSTFYADSVKGRFTISRDNAKNTVYLQMKSLKPEDTAVYYCNAYRKFRYWGQGTQVTVSS | high polyreactivity |
| QVQLVESGGGLVQAGGSLRLSCAASVISFARNVMGWYRQATGKERELVAGISRRGGSTYYADSVKGRFTISRDNAKNTVYLQMNSLKPEDTAVYYCAAEYIRNGDYGLDYWGQGTQVTVSS | high polyreactivity |
| QVQLVESGGGLVQAGGSLRLSCAASVITFVFYAMGWYRQAPGKEREFVAGITWRGGRTYYADSVKGRFTISRDNAKNTVYLQMNSLKPEDTAVYYCNARSVVLTGGDYWGQGTQVTVSS | high polyreactivity |
| QVQLVESGGGLVQAGGSLRLSCAASVITVRSYAMGWYRQAPGKERELVARISTDADTYYADSVKGRFTISRDNAKITVYLHMNSLKPEDTAVYYCAAEDYWDFDYWGQGTQVTVSS | low polyreactivity |
| QVQLVESGGGLVQAGGSLRLSCAASVITYFVYAMGWYRQAPGKERELVAAITSGDSTSYADSVKGRFTISRDNAKNTVYLQMNSLKPEDTAVYYCAAEQVTIEDGVYFDFNSWGQGTQVTVSS | low polyreactivity |
| QVQLVESGGGLVQAGGSLRLSCAASVKIFAWYALGWYRKAPGKEMELVADISSRGGSTYYADSVKGRFTISRDNAKNTVYLQMNSLKPEDTAVYYCAAVWYWTQDYDYWGQGTQVTGSS | low polyreactivity |
| QVQLVESGGGLVQAGGSLRLSCAASVLTFVDYAMGWYRQAPGKERELVAAITSSGGSITYYADSVKGRFTISRDNAKNTVYLQMNSLKPEDTAVYYCNADYGIYTDSFRGQDYESWGQGTQVTVSS | low polyreactivity |
| QVQLVESGGGLVQAGGSLRLSCAASVNIFQSYTMGWYRQAPGKERELVARITARGGRTYYADSVQGRFTISRDNANNTVYLQMNSLKPEDTAFYYCAAQHRGPYGVDYWGQGTQVTVSS | high polyreactivity |
| QVQLVESGGGLVQAGGSLRLSCAASVNIFSFYAMGWNRQAPGKERELVAAIIWSGGDTYYADSVKGRFTISLDNAKNTVYLQMNSLKPEDTAVYYCAAEYYYQYYPGGYDYWGQGSQVTVSS | high polyreactivity |
| QVQLVESGGGLVQAGGSLRLSCAASVRIFGYYAMGWNRQAPGTERELVATINSVGSTNYADSVKGRFTISRDNAKNTVYLQMNSLKPEDTAVYYCATDSAYTFFTYRLWRHGYWGQGTQVTVSS | low polyreactivity |
| QVQLVESGGGLVQAGGSLRLSCAASVRIFPIYAMGWYRQAPGKERELVAAIDSGGSTTYADSVKGRFTISRDNAKNTVYLQMNSLKPEDTAVYYCSAKGAYPYWYPVAYRYDYWGQGTQVTVSS | low polyreactivity |
| QVQLVESGGGLVQAGGSLRLSCAASVRIFSGYAMGWYRQAPGKERELVAAISQRGGSTTYADSVKGRFTISRDNAKNTVYLQMNSLKPEDTAVYYCAKRYTYPSGYDYWGQGTQVTVSS | low polyreactivity |
| QVQLVESGGGLVQAGGSLRLSCAASVRIFVYYAMGWYRQAPGKERELVASISYSGASTYYADSVKGRFTISRDNAKKTVYLQMNSLKPEDTAVYYCNTDGDDFFHVIYDYWGQGTQVTVSS | low polyreactivity |
| QVQLVESGGGLVQAGGSLRLSCAASVRIYGSNVMGWYRQAPGKERELVASISSGGTTYYADSVKGRFTISRDNAKNTVYLQMNSLKPEDTAVYYCAKQWTRIYQYRWYPGTRTGYDYWGQGTQVTVSS | high polyreactivity |
| QVQLVESGGGLVQAGGSLRLSCAASVRTFYRYAMGGYRQAPGKERELDAGISWRGGSTYYADSVKGRFTISRDNAKNTVYLQMNSLKPEDTAVYYCNAVTTPARTRLFKTVPYEYWGQGTQVTVSS | high polyreactivity |

| Sequence | polyreactivity (PSR sort gate) |
| --- | --- |
| QVQLVESGGGLVQAGGSLRLSCAASVRTFYYYAMGWYRQAPGKERELVAAIRWSTGSTYYADSVKGRFTISRDNAQNTVYLQMNSLKPEDTAVYYCAADTWYIQWGYYWGQGTQVTVSS | low polyreactivity |
| QVQLVESGGGLVQAGGSLRLSCAASVRTMRTYTMGWYRQAPGIERELVAAISSSDDSTYYADSVKGRFTISRDNEKNTVYLQMNSLKPEDTAVYYCAKDGLYPTEYGYWGQGTQVTVSS | high polyreactivity |
| QVQLVESGGGLVQAGGSLRLSCAASVRTSSKYALGWYRQAPGKERELVAGISASGTRTYYADSVKGRFTISRDNAKNTVYLQMNSLKPEDTAVYYCATSFFWYYYWGQGTQVTVSS | high polyreactivity |
| QVQLVESGGGLVQAGGSLRLSCAASVRTVDSYTMGWYRQAPGKERELVAAIRSSGGRTYADSVKGRFTISRDNAKNTVYLQMNSLKPEDTAVYYCAAARSYWAKYYYWGQGTQVTVSS | high polyreactivity |
| QVQLVESGGGLVQAGGSLRLSCAASVSIFETYAMGWSRQAPGKERELDAAISSSGGTTYYADSVKGRFTISRDTAKNTVYLQMNSLKPEDTAVYYCAARSAATHWTFLFYYDFDYWGQGTQVTVSS | low polyreactivity |
| QVQLVESGGGLVQAGGSLRLSCAASVSIFFSYAMGWYRQAPGKERELVASITWSGDTTYYADSVKGRFTISRDNAKNTVYLQMNSLKPEDTAVYYCAAVNRGGYDYWGQGTQVTVSS | low polyreactivity |
| QVQLVESGGGLVQAGGSLRLSCAASVSIFGSNAMRWYRQAPGKERELVAVITNGGRTYYADSVKGRFTISRDNAKNTVFLQMNSLKPEDTAVYYCAASRVYGWYGSYSTYGSWGQGTQVTVSS | high polyreactivity |
| QVQLVESGGGLVQAGGSLRLSCAASVSIFGYNTMGRYRQAPGKERELVARIRASGGSTYYADSVKGRFTISRDNAKNTVYLQMNSLKPEDTAVYYCAKYLRGSWVRQFGSTYDYWGQGTQVTVSS | high polyreactivity |
| QVQLVESGGGLVQAGGSLRLSCAASVSIFISYAMGWYRQAPGKERELVAAISSGGSTNYADSVKGRFTISRDNAKNTVYLQMNSLKPEDTAVYYCAADGWLWSFTGDGWWFDDWGQGTQVTVSS | low polyreactivity |
| QVQLVESGGGLVQAGGSLRLSCAASVSIFRVNTMGWYRQAPGKERELVATISSGARTNYADSVKGRFSISRDNAKNTVYLQMNSLKPEDTAVYYCATRYRRVYTWYDYWGQGTQVTVSS | high polyreactivity |
| QVQLVESGGGLVQAGGSLRLSCAASVSIFTAYPRGWYRQAPGKERELVAAISNGGSTYYADSVKGRFTISRDNAKNTVYLQMNSLKQEDTAVYYCAADSVQFQPDDEYWGQGTQVTVSS | low polyreactivity |
| QVQLVESGGGLVQAGGSLRLSCAASVSIFWSYAMGWSRLAPGKERELVASISRSTGRTRYADSVKGRFTFSRDNAKNTVDLQMNSLKPEDTAVYYCNAEKRGQSYRFDYWGQGTQVTVSS | high polyreactivity |
| QVQLVESGGGLVQAGGSLRLSCAASVSIFYRNARGWYRQEPGKEREMVAAISSSVSSTYYADSVKGRFTISRDNAKNTVYLQMNSLKPEDTAVYYCAARRFQRGGDYFYRYLYDYWGQGTQVTVSS | low polyreactivity |
| QVQLVESGGGLVQAGGSLRLSCAASVSTFSTYAMGWYRQAPGKERELVAASTWRGSSTYYADSVKGRFTISRDNAKKTVYLQMNSLKPEDTAVYYCAAEDTFYEYYYWGQGTQVTVSS | high polyreactivity |
| QVQLVESGGGLVQAGGSLRLSCAASVSTFVGNAMGWYRQAPGKERELHAAISSGGSRTNYADSVKGRFTISRDNAKNTVYLQMNSLKPEDTAVYYCIAVFPRWQGSGRFAGGDYWGQGTQVTLSS | high polyreactivity |
| QVQLVESGGGLVQAGGSLRLSCAASVSTFYRNAMGWYRQAPGKERELVADISASGGSTYYADSVKGRFTISRDNAKNTVYLQMNSLKPEDTAVYYCNALYFYFYNYLTIVYWGQGTQVSVSS | low polyreactivity |
| QVQLVESGGGLVQAGGSLRLSCAASVSTVSYNAMGWYRQAPGKERELVAAISGSGGTTYYADSVKGRFTISRDNAKNTVYLQMNSLKPEDTAVYYCAARPFRSWRYDYWGQGTQVTVSS | low polyreactivity |
| QVQLVESGGGLVQAGGSLRLSCAASVYTSSLNAMGWYRQAPGKERELVARITTDGTSTYYADSVKGRFTISRDNAKNTVYLQMNSLKPEDTAVYYCNARYPAYGVRSWYPYAYYYWGQGTQVTVSS | low polyreactivity |
| QVQLVESGGGLVQAGGSLRLSCAASVYTVVWYAMGWYRPAPGKERELVAVITSGGGTNYADSVKGRFTISRDNAKNTVYLQMNSLKPEDTAVYYCAAVWYTSRQKYDYWGQGTQVTVSS | low polyreactivity |
| QVQLVESGGGLVQAGGSLRLSCAASYAMGGYRQAPGKERELVAGISRSGDITYYADSVKGRFTISRDNAKNTVYLQMNSLKPEDTAVYYCAARQGRYSGRQLFYWGQGTQVTVSS | high polyreactivity |
| QVQLVESGGGLVQAGGSLRLSCAATGFIFPKYAMGWYSKAPGKERELVAAISKSGGRTYYADSVKGRFTISRDNAKNTVYLQMNSLKPEDTAVYYCAAEFTYEGDSWGQGTQVTVSS | high polyreactivity |
